Results reported in article PMC7108872 (Nature structural & molecular biology, 2019).

Target: bovine β-arrestin 1 (1–393) (bovine, UniProt P17870)
Assay: cryo-EM structure

Sequence of bovine β-arrestin 1 (1–393) (P17870 1-393): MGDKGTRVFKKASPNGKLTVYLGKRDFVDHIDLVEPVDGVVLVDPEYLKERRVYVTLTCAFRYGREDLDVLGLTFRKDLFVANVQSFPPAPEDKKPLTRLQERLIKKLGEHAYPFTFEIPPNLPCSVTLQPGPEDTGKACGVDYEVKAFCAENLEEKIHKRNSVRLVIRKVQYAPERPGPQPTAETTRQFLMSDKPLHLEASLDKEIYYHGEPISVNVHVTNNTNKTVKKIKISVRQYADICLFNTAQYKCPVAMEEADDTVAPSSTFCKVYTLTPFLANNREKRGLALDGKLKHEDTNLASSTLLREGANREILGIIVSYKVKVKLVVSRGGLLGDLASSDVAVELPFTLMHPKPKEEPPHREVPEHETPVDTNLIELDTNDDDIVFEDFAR

binding result: binds
B1: Nanobody 32 (VHH)
VHH: QVQLQESGGGLVQAGGSLRLSCVVSGFFFDTVTMAWYRRAPGKHRELVASATAGGTTTYADSVKDRFTISRDNAKNTVYLQMNSLKPEDTAVYYCNTFVRSLSWGQGTQVTVSS
